Results published in the supplement of paper PMC10724198.
± gives the standard deviation of the averaged measurements.

Test system: Saccharomyces cerevisiae
Assay: protein stability index of tFT-peptide fusion (C-terminal peptide) (PSI (0-1 scale)); higher = more stable (slower turnover)
Details: genetic background: wild type; temperature: 30 C
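Note: PSI is a weighted mean of sequencing reads over stability bins, variants kept only with over 10 reads, mCherry proximal and sfGFP distal, peptide attached via GGGS linker.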

Row | Sequence | protein stability index
1 | KKQKKEKKKSHK | 0.757 ± 0.068
2 | QIEQQKHKQPLI | 0.6859 ± 0.0024
3 | RRCCLDPGGLLS | 0.607 ± 0.0078
4 | EVCPRGIAGGVV | 0.678 ± 0.013
5 | KGHMYEFRKGVR | 0.68 ± 0.011
6 | PSPFPLPLSFAR | 0.538 ± 0.047
7 | HFSLCSNRSNPP | 0.646 ± 0.015
8 | GGGVGLGGYGEG | 0.636 ± 0.055
9 | VIFCVGRFSGGS | 0.645 ± 0.085
10 | LAHACQRRQTEA | 0.786 ± 0.11
11 | RGGGGGGQVAVG | 0.711 ± 0.049
12 | GGGWGGEAVRVW | 0.65 ± 0.055
13 | GTLRLLYLKTSK | 0.651 ± 0.009
14 | CSSSLLDSPPAL | 0.703 ± 0.048
15 | FQGPPFKHVNSV | 0.701 ± 0.059
16 | PPIPLPPLAPPL | 0.699 ± 0.038
17 | GVWQGVGVRGWG | 0.83 ± 0.096
18 | PRPPYHAPSTFP | 0.575 ± 0.074
19 | PYSLRSTASSFP | 0.63 ± 0.12
20 | LDLELNRRCRTS | 0.675 ± 0.06
21 | ARPFPPLSPPPP | 0.655 ± 0.078
22 | PSPLAPPLPPPS | 0.701 ± 0.015
23 | LYICNYFKFKKR | 0.7096 ± 0.0069
24 | ALRSGHALPFGF | 0.667 ± 0.021
25 | GGRGVVVGQGAG | 0.705 ± 0.027
26 | PRLSPPSSPGPP | 0.631 ± 0.03

Row | Sequence | protein stability index
27 | VCCDRWWFAFWE | 0.7241 ± 0.0012
28 | RLWFPSARLRFT | 0.678 ± 0.06
29 | LPRPTRLRTTPA | 0.685 ± 0.044
30 | PPLLPYHPTRFD | 0.713 ± 0.012
31 | ACSPPPPPTLLF | 0.686 ± 0.012
32 | GWGGFQFECGWV | 0.651 ± 0.059
33 | LRCWVGGALCGG | 0.685 ± 0.033
34 | AVGWGGLKGRVG | 0.7 ± 0.037
35 | WLRSLLKENLVR | 0.5422 ± 0.0016
36 | KQKKAETQATQK | 0.678 ± 0.038
37 | SGRYNIKPEERE | 0.634 ± 0.022
38 | FLDSFCFFPPLP | 0.778 ± 0.014
39 | CIRSRHRRQSKG | 0.67 ± 0.088
40 | FFGYLVDEGLWV | 0.738 ± 0.0084
41 | PPPPPPPPPSTP | 0.744 ± 0.016
42 | RCAGCFDSAFSW | 0.746 ± 0.012
43 | WWGCVGRVGVEG | 0.726 ± 0.1
44 | IIRSKGTKSMHK | 0.691 ± 0.013
45 | GRRVQRGQARGA | 0.66 ± 0.024
46 | PPSRPLPSPLPP | 0.631 ± 0.03
47 | WGTGGRLGVGHV | 0.697 ± 0.056
48 | AGCSVVGRWCLW | 0.742 ± 0.1
49 | VALSSECVLSGV | 0.656 ± 0.025
50 | RQLPPRAPAARG | 0.661 ± 0.028
51 | GQGRGERRRVRP | 0.653 ± 0.075
52 | VLNRFENRNSKA | 0.7098 ± 0.0035

Row | Sequence | protein stability index
53 | TQHPQPCPLAAV | 0.712 ± 0.12
54 | ILWFYSDSPWLS | 0.763 ± 0.11
55 | NESCRNREPGHV | 0.664 ± 0.1
56 | PVSSFQHSLPWL | 0.708 ± 0.03
57 | GLPWRGVGGGSG | 0.719 ± 0.038
58 | TNNTKRDKKRIQ | 0.703 ± 0.16
59 | PRPPLRPPPISP | 0.68 ± 0.066
60 | VRVCRSVGAGMT | 0.649 ± 0.034
61 | PSPPAPLSLLLP | 0.645 ± 0.074
62 | PNTSVAATPHDF | 0.67 ± 0.085
63 | LPPCLEYLRVLR | 0.658 ± 0.07
64 | LSVLPAFYPRSP | 0.758 ± 0.045
65 | GSFMECIREGIF | 0.718 ± 0.058
66 | LGWPWGGRGEGL | 0.606 ± 0.0069
67 | KSKLSSRTKLTH | 0.64 ± 0.03
68 | REKLINEKRIRR | 0.704 ± 0.012
69 | HEKTGNNHKRGH | 0.628 ± 0.19
70 | APRTRLCVHEIP | 0.686 ± 0.01
71 | PPPSHSLPSLPI | 0.626 ± 0.033
72 | VGCSSHAFGSSV | 0.686 ± 0.053
73 | PPPPFLCSPFVA | 0.6905 ± 0.00081
74 | KREEGKTKKKKQ | 0.666 ± 0.023
75 | RSFRCWVQGYCG | 0.654 ± 0.044
76 | KKCSNNPMTLRI | 0.655 ± 0.032
77 | PDYPYQDQLARL | 0.784 ± 0.058
78 | PPLPPPVYHSLP | 0.6855 ± 0.0027

Row | Sequence | protein stability index
79 | LKALNKFEDTGN | 0.668 ± 0.018
80 | THVKVNNQARGR | 0.722 ± 0.014
81 | LFRPGDLVYHSV | 0.727 ± 0.026
82 | QIPEYGGQGVNV | 0.6935 ± 0.0047
83 | AAHLLPSIHGYL | 0.669 ± 0.076
84 | PPRSLPPPTSPL | 0.731 ± 0.011
85 | GLDHRLALLYPS | 0.736 ± 0.036
86 | KKQLIPPKHHQR | 0.661 ± 0.022
87 | VLRSTQGAINRI | 0.717 ± 0.02
88 | GRWGGWGGRGCG | 0.696 ± 0.023
89 | AYLNPFTSALTA | 0.616 ± 0.028
90 | PPRLHAPPPSPP | 0.716 ± 0.016
91 | LSLICSLVHSIM | 0.635 ± 0.016
92 | VSVVGDVWGYGG | 0.753 ± 0.068
93 | PPPLLPHLLLPP | 0.611 ± 0.12
94 | PLPAPSPLPSPL | 0.735 ± 0.038
95 | LPWGGVVVGSMV | 0.73 ± 0.019
96 | ESAARGWSSGVG | 0.726 ± 0.079
97 | LSKTRRPKSADM | 0.7 ± 0.025
98 | RAMLWGPCYRGI | 0.656 ± 0.021
99 | DLYVADNCPNSP | 0.662 ± 0.1
100 | SRGWLHVVGGQV | 0.6843 ± 0.004
101 | LPPPLPPPPPPV | 0.651 ± 0.017
102 | VFSCPLLFASFS | 0.672 ± 0.041
103 | RGSIKSYNTRKT | 0.728 ± 0.009
104 | SVYFSLITRPYY | 0.667 ± 0.012

Row | Sequence | protein stability index
105 | LSAVISHLGNSK | 0.65058 ± 0.0002
106 | CSDRCHNLLLDA | 0.705 ± 0.059
107 | PLPPPPPLPLSP | 0.693 ± 0.07
108 | GPEVRPTLTHNE | 0.623 ± 0.018
109 | QPGPKTTYLEEA | 0.686 ± 0.014
110 | APAPHSPNFPFS | 0.699 ± 0.008
111 | PALQHTVPPPPQ | 0.579 ± 0.012
112 | CYKKRKKTNNYE | 0.653 ± 0.02
113 | GWGGSIGEEWGG | 0.687 ± 0.022
114 | LCWGGRCGSGPG | 0.72 ± 0.051
115 | PVPPPPCPPLPP | 0.683 ± 0.024
116 | LHLPFLPSLPHP | 0.727 ± 0.042
117 | PPLSPSLPPSPS | 0.681 ± 0.0089
118 | LPSLPPPPSPSS | 0.641 ± 0.029
119 | KQRGSNYGCGYG | 0.615 ± 0.026
120 | DGLQNACVFMSG | 0.6906 ± 0.0025
121 | CFGGGVGWFPLG | 0.698 ± 0.0076
122 | FRPCPLNSLSRY | 0.724 ± 0.021
123 | KKEQRKKRQQKT | 0.6958 ± 0.0066
124 | GFEWWCQSVSVG | 0.688 ± 0.018
125 | GGRWMWWAGAAG | 0.79 ± 0.3
126 | LPNLTIPSRAIA | 0.623 ± 0.0054
127 | HNGYLKRIKISR | 0.707 ± 0.085
128 | HRWCLADYVEVG | 0.773 ± 0.063
129 | SSLWGAGGRGID | 0.706 ± 0.011
130 | GDGAGGGFGLVV | 0.724 ± 0.097

Row | Sequence | protein stability index
131 | WFGPPAPRKVSP | 0.852 ± 0.042
132 | PPPPAPYPNYYS | 0.542 ± 0.0062
133 | PPSPPVRPPLLA | 0.617 ± 0.14
134 | SAGIRPFIQVHI | 0.653 ± 0.019
135 | RAPFLSRACCSR | 0.648 ± 0.013
136 | RRGAGCAAVGLG | 0.618 ± 0.024
137 | KRGNGIEGRVGG | 0.685 ± 0.011
138 | RNWCHGTVLNRL | 0.736 ± 0.13
139 | GDPADGACGPTR | 0.8 ± 0.062
140 | LPPPPLLIPLPT | 0.605 ± 0.062
141 | SWECRGMGVCGG | 0.721 ± 0.02
142 | PSPPTPLPSRLF | 0.7829 ± 0.0037
143 | IGRVSVWDQKVA | 0.673 ± 0.054
144 | ALFLDFCFPCLP | 0.619 ± 0.011
145 | IPPSSLSSPLPP | 0.704 ± 0.019
146 | PVPRVPLYFPLV | 0.675 ± 0.017
147 | HVTHPGCTLQLR | 0.707 ± 0.071
148 | RHPTITAPTPTP | 0.748 ± 0.063
149 | VLHGFGSLRDRV | 0.717 ± 0.017
150 | TKKRKRKKKGNK | 0.715 ± 0.05
151 | SLRPSELFRPLN | 0.724 ± 0.014
152 | ARLPPPRPLPPP | 0.748 ± 0.13
153 | PSQRHQRPHREP | 0.657 ± 0.052
154 | DYHPPRRMKEAG | 0.625 ± 0.028
155 | PPPDHSPPPCPP | 0.6857 ± 0.0037
156 | PHHLLTAHPPPA | 0.668 ± 0.035

Row | Sequence | protein stability index
157 | PHYCSAYTAGHG | 0.72 ± 0.036
158 | SSSRCRVGHAGW | 0.67 ± 0.0096
159 | LWAGGVAVAVSR | 0.638 ± 0.045
160 | LRARTPPPSHLP | 0.693 ± 0.02
161 | SLCFSVFFPFFF | 0.5443 ± 0.0027
162 | PPVLSLGPPFTS | 0.73 ± 0.11
163 | PPPLPPPILLRF | 0.598 ± 0.024
164 | QTHRFLHVGKSL | 0.621 ± 0.043
165 | GTLAAGGGVPMS | 0.734 ± 0.034
166 | QFWVICTRGSEN | 0.694 ± 0.029
167 | VQSSLFGLGVQC | 0.566 ± 0.033
168 | CGGAKLPEQCQK | 0.6813 ± 0.0022
169 | KIIKIKKQGENK | 0.597 ± 0.016
170 | MITQVIKRRKRK | 0.688 ± 0.041
171 | GRGPRTTKAGRG | 0.7 ± 0.03
172 | ASSHSFPDAPSL | 0.73 ± 0.046
173 | LPAILALVPRYP | 0.674 ± 0.022
174 | AVGRGGVGAEGA | 0.65 ± 0.011
175 | SSCFVIRSLSNP | 0.72 ± 0.14
176 | PIFPPLTSPSPP | 0.68 ± 0.032
177 | LNNAIAGGSVGI | 0.702 ± 0.074
178 | PPDPPPHASPAP | 0.72 ± 0.03
179 | GGLVVRCGVTSS | 0.695 ± 0.15
180 | HTPRLRRMRDYH | 0.658 ± 0.087
181 | IRIKKQRKEKRK | 0.734 ± 0.048
182 | LPTVVTAVHQGL | 0.671 ± 0.014

Row | Sequence | protein stability index
183 | AHRLTKVIILFG | 0.67 ± 0.1
184 | CSRGRNSDNNLI | 0.631 ± 0.043
185 | INSSPRSSTLLL | 0.686 ± 0.034
186 | LMPPHPLFLSDI | 0.724 ± 0.012
187 | KDKKKNQNRKKN | 0.661 ± 0.038
188 | PPLPAPPPLRPP | 0.606 ± 0.012
189 | PHTLKPNPLSTA | 0.61 ± 0.063
190 | LRYSPLLFLSVV | 0.513 ± 0.013
191 | PSPSGRGLAIAP | 0.688 ± 0.013
192 | GYSFWSCVAFFS | 0.628 ± 0.0068
193 | CVIIDFTLCSVI | 0.682 ± 0.14
194 | CPLPTAFRSTHV | 0.691 ± 0.019
195 | GEARVGGRWWSK | 0.7722 ± 0.0071
196 | PIFPFSFFLPLI | 0.605 ± 0.011
197 | FPSPPPPAPLPP | 0.763 ± 0.039
198 | GERHTGTLRRPD | 0.701 ± 0.065
199 | RGGPQARRLRPY | 0.706 ± 0.063
200 | SLSIFLRDALGF | 0.74 ± 0.035
201 | YSLSDVAVLAST | 0.629 ± 0.045
202 | SLAYPPPSPPPA | 0.68 ± 0.054
